Assay results: article PMC2954905, “Controlling Cellular P-TEFb Activity by the HIV-1 Transcriptional Transactivator Tat”

B1: 5'HPdm+pm (in vitro) (structured_RNA)
RNA: GGAUGUGAGGGCCUAGACCGACCGACAUCUGUCACCCCAUUGAUCGCCAGGGUUGAUUCGGCUCUAGACCGACGCUAGGCGGGUGUCCCCUUCCUCCCUCACCGCUCCAUG

Biological target: HEXIM1 (UniProt O94992 1-359)
Assay: EMSA; EMSA: 50 mM Tris-HCl pH 8.0, 100 mM NaCl, 14.4 mM 2-mercaptoethanol, 20 ng/ul E. coli tRNA, RT; ~2 fmol RNA; 4-5% native PAGE in 0.5x TBE, 2.5% glycerol
Details: protein: recombinant, hairpin

Chain of HEXIM1 (O94992 whole entry): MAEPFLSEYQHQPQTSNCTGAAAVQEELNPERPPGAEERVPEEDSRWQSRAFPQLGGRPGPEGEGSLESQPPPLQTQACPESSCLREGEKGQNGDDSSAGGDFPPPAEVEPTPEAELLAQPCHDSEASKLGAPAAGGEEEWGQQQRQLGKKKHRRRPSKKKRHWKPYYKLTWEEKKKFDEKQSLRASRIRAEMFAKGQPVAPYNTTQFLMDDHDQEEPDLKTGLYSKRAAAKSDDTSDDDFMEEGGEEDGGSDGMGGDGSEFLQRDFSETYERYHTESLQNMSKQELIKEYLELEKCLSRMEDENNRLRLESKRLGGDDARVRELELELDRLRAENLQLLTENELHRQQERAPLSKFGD

Row | Binder | binding result (label: 32P internal) | binding result (label: 32P, GGAA tetraloop)
1 | B1 | no binding | 
2 | GGGCCACUGACCCCAUUGAUCGGAAGAUCUGGCUGGCUACAGUGGAUC (structured_RNA) [DHBS] |  | binds
